Measurements from the supplement of paper PMC7877785.
± gives the uncertainty stated by the source.

Assay: self-splicing fitness, log relative to wild type (ln ratio); higher = more splicing; Tetrahymena group I intron in knt gene, E. coli kanamycin selection, DiMSum; sequences stand for … in CUCUCU…GGAGGGAAAAGUUAUCAGGCAUGCACCUGGUAGCUAGUCUUUAAACCAAUAGAUUGCAUCGGUUUAAAAGGCAAGACCGUCAAAUUGCGGGAAAGGGGUCAACAGCCGUUCAGUACCAAGUCUCAGGGGAAACUUUGAGAUGGCCUUGCAAAGGGUAUGGUAAUAAGCUGACGGACAUGGUCCUAACCACGCAGCCAAGUCCUAAGUCAACAGAUCUUCUGUUGAUAUGGAUGCAGUUCACAGACUAAAUGUCGGUCGGGGAAGAUGUAUUCUUCUCAUAAGAUAUAGUCGGACCUCUCCUUAAUGGGAGCUAGCGGAUGAAGUGAUGCAACACUGGAGCCGCUGGGAACUAAUUUGUAUGCGAAAGUAUAUUGAUUAGUUUUGGAGUACUCGUGGUCG
Outline: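 Fitness was computed with DiMSum as the error-weighted combination of replicate fold changes, kanamycin versus none, each normalised to wild type. The library randomised all eight intron nucleotides of the P1ex region, with the intron placed in the knt kanamycin-resistance gene on pET-22b(+) in E. coli BL21(DE3). Six replicate transformations were grown overnight at 37°C or 30°C on LB agar with or without 25 μg/mL kanamycin, plus 100 μg/mL carbenicillin, 50 μM IPTG and 0.2% rhamnose. Pooled colonies were amplicon-sequenced on an Illumina HiSeq 2500.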

Sequence	self-splicing fitness (ln) (30 °C)	self-splicing fitness (ln) (37 °C)
UAAUAGCAAUAUUACGGCUU	-0.901 ± 0.096	-0.115 ± 0.13
UAAUAGCAAUAUUACGGGGC	-3.12 ± 0.31	-2.84 ± 0.31
UAAUAGCAAUAUUACGGGUC	-3.33 ± 0.3	-1.58 ± 0.28
UAAUAGCAAUAUUACGUAAG	-2.47 ± 0.21	-0.977 ± 0.15
UAAUAGCAAUAUUACGUACA	-1.05 ± 0.11	-0.0465 ± 0.13
UAAUAGCAAUAUUACGUAUC	–	-2.68 ± 0.48
UAAUAGCAAUAUUACGUAUU	-4.09 ± 0.28	-1.95 ± 0.16
UAAUAGCAAUAUUACGUCAA	-2.33 ± 0.17	-1.77 ± 0.15
UAAUAGCAAUAUUACGUGCG	0.0578 ± 0.065	-0.0439 ± 0.091
UAAUAGCAAUAUUACGUUGA	-2.67 ± 0.2	-2.54 ± 0.18
UAAUAGCAAUAUUACGUUGU	-3.53 ± 0.18	-1.98 ± 0.19
UACAAGCAAUAUUACGAAUG	-0.773 ± 0.065	-0.319 ± 0.086
UACAAGCAAUAUUACGACAC	-3.15 ± 0.18	-1.38 ± 0.15
UACAAGCAAUAUUACGACUC	-2.6 ± 0.14	-1.2 ± 0.16
UACAAGCAAUAUUACGAUCC	-3.27 ± 0.27	-1.78 ± 0.24
UACAAGCAAUAUUACGCAAU	-3.44 ± 0.21	-2.47 ± 0.23
UACAAGCAAUAUUACGCAGC	-4 ± 0.42	-2.63 ± 0.39
UACAAGCAAUAUUACGCCUU	-0.984 ± 0.091	-1.04 ± 0.092
UACAAGCAAUAUUACGCGAG	-1.62 ± 0.11	-0.536 ± 0.1
UACAAGCAAUAUUACGGAUU	-3.61 ± 0.15	-0.762 ± 0.09
UACAAGCAAUAUUACGGCCG	-0.0815 ± 0.085	0.427 ± 0.13
UACAAGCAAUAUUACGGCGA	-0.244 ± 0.072	0.0939 ± 0.087
UACAAGCAAUAUUACGGUAG	-2.15 ± 0.089	-1.43 ± 0.086
UACAAGCAAUAUUACGUACC	-2.83 ± 0.19	-1.93 ± 0.19

Sequence	self-splicing fitness (ln) (30 °C)	self-splicing fitness (ln) (37 °C)
UACAAGCAAUAUUACGUAUU	-4.29 ± 0.19	-2.32 ± 0.13
UACAAGCAAUAUUACGUCAC	-3.37 ± 0.2	-2.41 ± 0.17
UACAAGCAAUAUUACGUCGU	-3.83 ± 0.18	-2.04 ± 0.17
UACAAGCAAUAUUACGUUCC	-3.65 ± 0.28	-2.58 ± 0.25
UACCAGCAAUAUUACGACAC	-2.34 ± 0.13	-1.16 ± 0.15
UACCAGCAAUAUUACGAGUC	-1.59 ± 0.12	-1.24 ± 0.12
UACCAGCAAUAUUACGCACA	-0.477 ± 0.088	0.0379 ± 0.092
UACCAGCAAUAUUACGCGAC	-3.1 ± 0.11	-1.58 ± 0.12
UACCAGCAAUAUUACGCGCG	0.11 ± 0.068	0.573 ± 0.09
UACCAGCAAUAUUACGCGGG	-3.61 ± 0.21	-1.31 ± 0.17
UACCAGCAAUAUUACGCUAG	-1.76 ± 0.074	-1.03 ± 0.083
UACCAGCAAUAUUACGCUCG	-0.415 ± 0.093	-0.203 ± 0.11
UACCAGCAAUAUUACGGACU	-0.102 ± 0.073	0.199 ± 0.098
UACCAGCAAUAUUACGGAGU	-3.23 ± 0.13	-2.4 ± 0.17
UACCAGCAAUAUUACGGCGU	-0.619 ± 0.055	-0.341 ± 0.072
UACCAGCAAUAUUACGGUAG	-2.15 ± 0.086	-1.16 ± 0.083
UACCAGCAAUAUUACGGUCU	-0.501 ± 0.056	0.24 ± 0.067
UACCAGCAAUAUUACGUACG	-0.42 ± 0.12	-0.594 ± 0.15
UACCAGCAAUAUUACGUCCA	-0.321 ± 0.081	0.176 ± 0.091
UACCAGCAAUAUUACGUCUU	-1.99 ± 0.08	-0.209 ± 0.086
UACCAGCAAUAUUACGUGGG	-3.76 ± 0.11	-2.52 ± 0.1
UACGAGCAAUAUUACGAACA	-2.11 ± 0.27	-2.13 ± 0.29
UACGAGCAAUAUUACGAAUA	-3.28 ± 0.47	-2.87 ± 0.48
UACGAGCAAUAUUACGAAUG	-2.56 ± 0.12	-1.68 ± 0.15
